Entries after “also recorded” stand apart in the source; their conditions may differ.
Columns and labels:
HLA-A2 molecule = biological target: T1, HLA-A2 molecule (Homo sapiens, UniProt P04439, D140Y/D185E/D98H/E176V/E277Q/G131W/G231S/I119V/I121R/I166T/I218V/L300P/L318F/N151K/N90K/P208A/P217A/Q86G/Q94H/R138H/R169H/T345S); assay: Binding of fluorescently labeled peptide to T2A2 cells; conditions: for affinity for HLA-A2 relative to the other peptides tested / binding to the HLA-A2 molecules on the surface of T2A2 cells: FIG. 1; for binding to the HLA-A2 molecules on the surface of T2A2 cells: fluorescently labeled peptide
T1 construct: endogenous in cells; host or cells: T2A2 cells

[1] = test system: autologous PBMC pulsed with HPV-16E6 or HPV-18E6 peptides; assay: 51Cr release lysis of peptide-pulsed autologous PBMC by lymphocytes stimulated in vitro with peptide; assay type: cell-based, human; conditions: lymphocytes of an HLA-A2 patient, peptide at 10 μm for 1-3 weeks, FIG. 2
Experimental: To determine if lymphocytes stimulated in vitro with either the HPV-18E6 peptide (SEQ ID NO. 1) or the HPV-16E6 peptide (SEQ ID NO. 10) would recognize and lyse peripheral blood mononuclear cells (PBMCs) pulsed with these peptides, the following experiment was performed. Lymphocytes isolated from a patient known to carry and express the HLA-A2 allele were stimulated in vitro (IVS) with either the HPV-18E6 peptide (SEQ ID NO. 1) or the HPV-16E6 peptide (SEQ ID NO. 10) at a 10 μm concentration for 1-3 weeks. Autologous PBMC target cells were radiolabeled with ^51Cr and pulsed with either the HPV-18E6 peptide (SEQ ID NO. 1) or the HPV-16E6 peptide (SEQ ID NO. 10). Each of the IVS lymphocyte populations were then mixed with each of the pulsed and labeled PBMC target cells and specific lysis was measured. Lymphocytes IVS with either the HPV-18E6 peptide (SEQ ID NO. 1) or the HPV-16E6 peptide (SEQ ID NO. 10) were able to lyse PBMCs which were pulsed with either the HPV-18E6 peptide (SEQ ID NO. 1) or the HPV-16E6 peptide (SEQ ID NO. 10) and had either the HPV-18E6 peptide (SEQ ID NO. 1) or the HPV-16E6 (SEQ ID NO. 10) peptide on their cell surface.
T cell cytotoxicity is measured by the standard ^51Cr-release assay. Briefly, target cells are radiolabeled with Na2 ^51CrO4. The patient's PBMC (which have been previously stimulated with an HPV peptide of Example 1 at 10 μm concentration for 1 to 3 weeks) are added to the labeled target cells in the presence or absence of the peptide. Cell lysis is determined by the specific release of ^51Cr (specific lysis). Target cells are autologous B-LCL or T2 cells pulsed with the peptide. If there is a detectable pre-immunization specific lysis, a 2.0 fold increase in the lytic units will be considered a positive response. If there is no detectable pre-immunization specific lysis, a post-immunization specific lysis of […] 10% above the controls will be considered a positive response.

| Sequence | fold higher affinity for the HLA-A2 molecule than the homologous HPV-16E6 peptide KLPQLCTEL (HLA-A2 molecule; T2A2 cells) | affinity for HLA-A2 relative to the other peptides tested (HLA-A2 molecule; T2A2 cells) | affinity for HLA-A2 relative to the other peptides tested (HLA-A2 molecule; T2A2 cells, listed as HPV-18E6 (13-21) peptide) | binding to the HLA-A2 molecules on the surface of T2A2 cells (HLA-A2 molecule) | binding to the HLA-A2 molecules on the surface of T2A2 cells (HLA-A2 molecule; listed as HPV-18E6 (13-21) peptide) | binding to the HLA-A2 molecules on the surface of T2A2 cells (HLA-A2 molecule; listed as HPV-18E6 peptide) | specific lysis of autologous PBMC pulsed with either HPV-18E6 or HPV-16E6 peptide by lymphocytes stimulated in vitro with the peptide ([1]; listed as HPV-18E6 peptide) | specific lysis of autologous PBMC pulsed with either HPV-18E6 or HPV-16E6 peptide by lymphocytes stimulated in vitro with the peptide ([1]; listed as HPV-18E6 peptides) | specific lysis of autologous PBMC pulsed with either HPV-18E6 or HPV-16E6 peptide by lymphocytes stimulated in vitro with the peptide ([1]; listed as HPV-16E6 peptide) | specific lysis of autologous PBMC pulsed with either HPV-18E6 or HPV-16E6 peptide by lymphocytes stimulated in vitro with the peptide ([1]; listed as HPV-16E6 peptides) |
| --- | --- | --- | --- | --- | --- | --- | --- | --- | --- | --- |
| KLPDLCTEL | approximately 100 fold | higher affinity than did either the FMP peptide or the homologous peptide from the HPV-16E6 protein | higher than the homologous HPV-16E6 peptide | bound | high affinity | able to bind | able to lyse; also recorded: able to elicit an immune response | specifically lyse |  |  |
| KLPQLCTEL [homologous peptide from the HPV-16E6 protein (amino acids 13-21), reference compound] |  |  |  |  |  |  |  |  | able to lyse | lyse |
